Target: human VEGFC (Vascular endothelial growth factor C) (human) (UniProt P49767)
Assay: cell-based or functional assay

- decrease in proliferation of cancer cells (MTT assay, A498, 786-O, MDA-MB231, 48 h): 40%
B1: 1E9 antibodies (monoclonal anti-VEGFC antibodies of the 1E9 hybridoma) (antibody, V domains shown)
VH: QAQLRQPGAELVKPGASVKLSCKASGYTFISYWMHWVKQRPGQGLEWIGEINPSNGRTNYNEKFKSKATLTVDRSSSTAYMQLSSLTSEDSAVYYCASTSLFYYAMNYWGQGTSVTVSS
VL: DVVMTQTPLSLTVSLGDQASISCRSSQSLVHSNGNTYLHWYLQKPGQSPKLLIYKVFNRLSGVPDRFSGSGSGTDFTLKISRVEAEDLGVYFCSQNTHVPWTFGGGTKLEIK
